The target in test [1] is T1, human IGSF11 (VSIG3) expressed on cells (human, UniProt Q5DX21 23-431).
T1 sequence: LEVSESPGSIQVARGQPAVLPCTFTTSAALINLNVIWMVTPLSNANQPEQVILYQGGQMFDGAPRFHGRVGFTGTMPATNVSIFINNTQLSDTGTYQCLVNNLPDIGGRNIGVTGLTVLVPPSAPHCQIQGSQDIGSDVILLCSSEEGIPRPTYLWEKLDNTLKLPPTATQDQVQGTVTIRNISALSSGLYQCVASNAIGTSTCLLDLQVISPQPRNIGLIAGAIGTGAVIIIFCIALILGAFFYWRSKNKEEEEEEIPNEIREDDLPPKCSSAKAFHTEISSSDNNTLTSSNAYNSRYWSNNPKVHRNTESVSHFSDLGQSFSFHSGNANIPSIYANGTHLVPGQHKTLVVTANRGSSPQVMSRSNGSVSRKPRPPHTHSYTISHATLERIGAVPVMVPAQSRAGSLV
Description: IgG FACS Colo741.
Description: (§1) Unbound antibodies were removed by washing the cells three time with FACS buffer. Bound antibodies were detected with a mouse anti-human IgG antibody conjugated with AlexaFluor647.

In test [2] the target is T2, murine IGSF11 expressed on cells (mouse, UniProt P0C673 23-428).
T2 construct: MC38-IGSF11, CT26-IGSF11, MC38-wt (naturally expresses murine IGSF11)
T2 sequence: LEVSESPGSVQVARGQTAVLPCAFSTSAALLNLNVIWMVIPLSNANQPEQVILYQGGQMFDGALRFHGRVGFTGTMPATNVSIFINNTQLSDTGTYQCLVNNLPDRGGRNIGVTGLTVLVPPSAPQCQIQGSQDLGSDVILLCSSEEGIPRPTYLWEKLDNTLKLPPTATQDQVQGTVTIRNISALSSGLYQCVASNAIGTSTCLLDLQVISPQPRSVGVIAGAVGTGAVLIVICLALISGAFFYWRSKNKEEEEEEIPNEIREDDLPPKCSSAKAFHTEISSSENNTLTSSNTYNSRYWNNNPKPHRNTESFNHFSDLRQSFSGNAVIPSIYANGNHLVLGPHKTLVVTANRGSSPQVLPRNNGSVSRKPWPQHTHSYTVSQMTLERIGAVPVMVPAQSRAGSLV
As to the kind of experiment: IgG FACS MC38-IGSF11.
Description: as §1

The target in test [3] is T1, human IGSF11 (VSIG3) expressed on cells. As to the kind of experiment: IgG FACS MDA-MB-231-IGSF11.
Description: as §1
For test [4], the target named is T3, extracellular domain (ECD) of human IGSF11 (VSIG3), recombinant (human, UniProt Q5DX21 23-241).
T3 construct: biotinylated where captured on streptavidin; tags of the reagent not always stated; also called IGSF11 (ECD domain); ECD-IGSF11
T3 sequence: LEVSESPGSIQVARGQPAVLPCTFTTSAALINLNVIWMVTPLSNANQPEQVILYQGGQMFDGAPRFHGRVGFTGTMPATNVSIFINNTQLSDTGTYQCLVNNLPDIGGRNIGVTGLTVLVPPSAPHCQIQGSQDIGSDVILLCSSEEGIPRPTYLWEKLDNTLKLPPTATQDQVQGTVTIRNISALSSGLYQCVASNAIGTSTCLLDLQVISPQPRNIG
Description: KinExA, Fab as CBP 80 and 800 pM, n-curve.
Description: (§2) Solution-based binding affinities were determined using the Kinetic Exclusion Assay (KinExA) 4000 system as described below, where binding partners were combined and allowed to reach equilibrium prior to measurement.
(§3) Briefly, anti-IGSF11 ABPs of the invention as Fabs were used as Constant Binding Partner (CBP) and human recombinant IGSF11 ECD was used as Titrant. After reaching equilibrium, free CBP were detected using PMMA beads coated with IGSF11 ECD or IGSF11 IgC2-domain Fc-fusion protein and an anti-human F(ab′)2 antibody conjugated with AlexaFluor647. […] The CBP was incubated with different Titrant concentrations for 16 h (or 72-90 h) to reach equilibrium. The equilibrium binding curves of different CBP concentrations were measured in duplicates and drift correction was applied. The n-curve analysis tool within the KinExA Pro Software version 4.4.26 was applied to obtain one KD value per set of binding curves by finding the best fit of a 1:1 binding model to the data.

In test [5] the target is T2, murine IGSF11 expressed on cells. As to the kind of experiment: IgG FACS MC38-wt; MC38-wt cells (murine line, not transfected).
Description: as §1
Test [6] deals with T3, extracellular domain (ECD) of human …. As to the kind of experiment: BLI: biotinylated IGSF11 on streptavidin sensor, ABP bound for 600 s, then VISTA.COMP; VISTA response normalised to that without antibody.
Description: Briefly, biotinylated IGSF11 was loaded on an optical biosensor via a streptavidin surface. The IGSF11-loaded biosensor was dipped into the samples with different concentrations of anti-IGSF11 ABP, and ABPs were bound for 600s.
Test [7] shares this target. Description: KinExA, Fab as CBP 15 pM, single binding curve.
Description: as §2, §3

B1: D-222 (IgG format) (antibody, V domains shown)
VH: EVQLVESGGGLVKPGGSLRLSCAASGFTFSHAWISWVRQAPGKGLEWVGQIKGGPGSGGTSYAEPVKGRFTISRDDSKNTLYLQMNSLKTEDTAVYYCARLGIYSGFDYWGQGTLVTVSS
VL: SYELTQPPSVSVSPGQTASITCSGDKLGDKYASWYQQKPGQSPVLVIYQDSKRPSGIPERFSGSNSGNTATLTISGTQAEDEADYYCHTYSHRPEIVVFGGGTKLTVL
On to B1, for which the EC50 in test [1], in test [2] and in test [3] was below 500 pM throughout.

B2: D-222 (Fab, KinExA constant binding partner) (Fab, V domains shown)
VH: EVQLVESGGGLVKPGGSLRLSCAASGFTFSHAWISWVRQAPGKGLEWVGQIKGGPGSGGTSYAEPVKGRFTISRDDSKNTLYLQMNSLKTEDTAVYYCARLGIYSGFDYWGQGTLVTVSS
VL: SYELTQPPSVSVSPGQTASITCSGDKLGDKYASWYQQKPGQSPVLVIYQDSKRPSGIPERFSGSNSGNTATLTISGTQAEDEADYYCHTYSHRPEIVVFGGGTKLTVL
notes: Fab
Regarding B2, the Kd in test [4] was below 150 pM.

B3: D-114 (IgG format) (antibody, V domains shown)
VH: EVQLLESGGGLVQPGGSLRLSCAASGFTFQFSALSWVRQAPGKGLEWVSAISYGGGSKYYADSVKGRFTISRDNSKNTLYLQMNSLRAEDTAVYYCARDSRDAYGVAFDLWGQGTMVTVSS
VL: ASVLTQPPSVSAAPGQKVTISCSGSSSNIGNNYVSWYQQLPGTAPKLLIYDNNKRPSGIPDRFSGSKSGTSATLGITGLQAEDEADYYCLSYKLSPGAYVFGGGTKLTVL
With B3, the EC50 in test [1] and in test [5] was below 500 pM throughout. For the same molecule, the “IC50 (read off the curve)” value in test [6] was around 700 pM.

B4: D-114 (Fab, KinExA constant binding partner) (Fab, V domains shown)
VH: EVQLLESGGGLVQPGGSLRLSCAASGFTFQFSALSWVRQAPGKGLEWVSAISYGGGSKYYADSVKGRFTISRDNSKNTLYLQMNSLRAEDTAVYYCARDSRDAYGVAFDLWGQGTMVTVSS
VL: ASVLTQPPSVSAAPGQKVTISCSGSSSNIGNNYVSWYQQLPGTAPKLLIYDNNKRPSGIPDRFSGSKSGTSATLGITGLQAEDEADYYCLSYKLSPGAYVFGGGTKLTVL
notes: Fab
Take B4: the dissociation constant (Kd) in test [7] was below 10 pM.

(Values after patent US20220372138A1 (IOMX THERAPEUTICS, published 2022).)
